The target of experiment [1] is T1, Human PD-1 (cell membrane expressed) (human, UniProt Q15116 25-288). The experiment in a line: cell-based or functional assay.
In experiment [2] the target is T1, Human PD-1 (cell membrane expressed). The experiment in a line: flow cytometry on CHO cells expressing human PD-1, GMFI, 4-parameter fit, average. The text has this:
(§1) The ability of the anti-human PD-1 agonist antibodies disclosed herein to bind to cell surface human or cynomolgus monkey PD-1 can be measured using a flow cytometric assay. Human and cynomolgus monkey PD-1 (i.e., as shown in SEQ ID NOs: 13 and 15, respectively) expressing stable cells are generated by transfecting human or cynomolgus monkey PD-1 plasmid DNA into Chinese Hamster Ovary cells (CHO-kl; Lonza) using an electroporation system (Gene Pulser Xcell; BioRad) according to established protocols. Stable cells are selected from single isolated cells using 500 μg/mL G418 (Thermo Scientific) in culture medium. For flow cytometry, the cells are transferred into a 96-well V-bottom plate at density of 1×10⁵ cells/well. The cells are washed with 1×FACS buffer (Becton Dickinson #554656). Antibody 1, or control human IgG1 (diluted in FACS buffer in a three-fold 12-point titration of the antibodies, starting at 100 micrograms/mL) are added (in 100 microliters) and cells are incubated at 4° C. for 30 minutes.
(§2) After washing twice in FACS buffer, live/dead cell staining is performed using SytoxBlue (Invitrogen, #S34857) per manufacturer's protocol. […] Flow cytometry data is analyzed using FlowJo software. Geometric Mean Fluorescence Intensity (GMFI) values are used to calculate relative EC₅₀ based on 4-parameter logistic regression.
In general terms: A flow cytometer gives signals particle by particle.

Experiment [3] addresses T2, Human PD1-extracellular domain (ECD)-His (human, UniProt Q15116 25-167).
T2 construct: Expressed in CHO cells, purified by IMAC and size exclusion; also called human PD-1 ECD; human PD1-ECD-his
The experiment in a line: SPR, Biacore 8K, 25° C., mAb captured on protein A, PD1-ECD-His as analyte, n=1. How it is done:
(§3) The binding kinetics of an anti-human PD-1 agonist antibody of the invention to human and cynolmolgus monkey PD-1 ECDs may be determined by use of a surface plasmon resonance biosensor such as BIAcore® 2000, BIAcore® 3000, BIAcore® 8K, or a BIAcore® T100 (GE Healthcare, Piscataway, N.J.). Briefly described, a BIAcore® 8K instrument is used to measure the binding kinetics for Antibody 1 to human and cynomolgus monkey PD1-extracellular domain (ECD)-His via surface plasmon resonance (SPR) at 25° C. Samples are dissolved in 1×HBS-EP+ running buffer (Teknova cat. # H8022) and a protein A coupled CMS Series S sensor chip (GE Healthcare Cat #29139131-AA) is utilized to capture mAb. Human and cynomolgus monkey PD1-ECD proteins which contain a C-terminal 8× histidine tag are expressed in CHO cells and purified by nickel charged IMAC followed by size exclusion.
(§4) Binding is evaluated using multiple analytical cycles. Each cycle is performed at 25° C. at a flow rate of 10 μl/minute for mAb capture and 30 μl/minute for ligand association and dissociation. Each cycle consists of the following steps: injection of mAb at 2 μg/ml for 60 s contact time targeting a capture level of approximately 220RUs on flow cell 2, injection of 150 seconds of human or cynomolgus PD1-ECD-his (concentration range of 400 nM to 1.6 nM by four fold serial dilution) followed by 600 second dissociation phase, and regeneration using 10 mM glycine hydrochloride, pH 1.5 over a 30 second contact time. Association (i.e., Kon) and dissociation rates (i.e., Koff) for each cycle are evaluated using standard double referencing and fit to “1:1 (Langmuir) binding” model in the Biacore 8K evaluation in parallel kinetics batch mode. The affinity (KD) is calculated from the binding kinetics according to the relationship KD=Koff/Kon.

In experiment [4] the target is T3, Cynomolgus monkey PD1-extracellular domain (ECD)-His (cynomolgus monkey).
T3 construct: Expressed in CHO cells, purified by IMAC and size exclusion; also called cynomolgus monkey PD-1 ECD; cynomolgus PD1-ECD-his
T3 chain: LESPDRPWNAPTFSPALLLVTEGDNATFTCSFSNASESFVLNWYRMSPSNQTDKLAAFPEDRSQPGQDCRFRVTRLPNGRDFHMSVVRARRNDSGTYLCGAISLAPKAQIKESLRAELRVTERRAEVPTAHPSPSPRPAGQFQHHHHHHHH
Described as above. How it is done: as §3, §4

The target of experiment [5] is T2, Human PD1-extracellular domain (ECD)-His. The experiment in a line: SPR, Biacore T200, 37° C., mAb captured, PD1-ECD-His as analyte, mean ± SD, n=9. How it is done: (§5) In subsequent experiments, Biacore was used to measure the binding kinetics for Antibody 1 to human and cynomolgus monkey PD1-extracellular domain (ECD)-His via surface plasmon resonance (SPR) at 37° C. by BIAcore® T200. For analyses at 37° C., binding is evaluated using multiple analytical cycles. Each cycle is performed at 37° C. at a flow rate of 10 μl/minute for mAb capture and 100 μl/minute for ligand association and dissociation. Each cycle consists of the following steps: injection of mAb at 2.5 μg/ml targeting a capture level of approximately 220RUs on flow cell 2, injection of 180 seconds of human or cynomolgus PD1-ECD-his (concentration range of […] to 1.6 nM by 2-fold serial dilution) followed by 600 second dissociation phase, and regeneration using 10 mM glycine hydrochloride, pH 1.5 over a 30 second contact time. Kon, Koff, and KD are calculated essentially as described above. Affinity data is reported as average and standard deviations determined from triplicate measurements in three independent experiments (mean±SD, n=9).
Background: Surface plasmon resonance follows binding to a sensor surface in real time, without labels.

For experiment [6], the target named is T3, Cynomolgus monkey PD1-extracellular …. The experiment is described as above. Here is the method: as §5
Experiment [7] addresses T4, Cynomolgus monkey PD-1 (cell membrane expressed) (cynomolgus monkey, UniProt Q15116 25-288 (human entry)).
T4 construct: Stably expressed on CHO-K1 cells; no cleavage site is stated; also called cyno PD-1; cynomolgus PD-1
T4 chain: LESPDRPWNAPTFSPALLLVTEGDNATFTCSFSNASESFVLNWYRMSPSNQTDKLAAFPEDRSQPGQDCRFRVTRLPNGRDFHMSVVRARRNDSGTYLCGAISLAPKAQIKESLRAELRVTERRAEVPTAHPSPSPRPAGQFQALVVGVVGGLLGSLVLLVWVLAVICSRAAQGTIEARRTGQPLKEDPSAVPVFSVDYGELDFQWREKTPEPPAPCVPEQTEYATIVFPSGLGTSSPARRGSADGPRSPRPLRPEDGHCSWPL
The experiment in a line: flow cytometry on CHO cells expressing cynomolgus monkey PD-1, GMFI, 4-parameter fit, average.
Excerpt: as §1, §2

In experiment [8] the target is T2, Human PD1-extracellular domain (ECD)-His. The experiment in a line: SPR, Biacore T200, 37° C., mAb captured, PD1-ECD-His as analyte, mean ± SD, n=9; 37° C. (n=9). Here is the method:
as §5

T1 sequence (Q15116 25-288 limits assumed): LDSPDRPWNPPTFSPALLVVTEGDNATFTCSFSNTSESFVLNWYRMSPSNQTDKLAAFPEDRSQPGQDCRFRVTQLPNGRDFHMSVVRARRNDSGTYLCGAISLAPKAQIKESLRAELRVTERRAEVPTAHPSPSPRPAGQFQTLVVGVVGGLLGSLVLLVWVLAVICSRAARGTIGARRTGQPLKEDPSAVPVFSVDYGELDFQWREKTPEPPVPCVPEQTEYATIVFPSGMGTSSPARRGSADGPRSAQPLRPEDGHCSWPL

B1: Antibody 1 (antibody, human IgG1, kappa, V domains shown)
VH: QVQLVQSGAEVKKPGASVKVSCKVSGYSLSKYDMSWVRQAPGKGLEWMGIIYTSGYTDYAQKFQGRVTMTEDTSTDTAYMELSSLRSEDTAVYYCATGNPYYTNGFNSWGQGTLVTVSS
VL: DIQMTQSPSSLSASVGDRVTITCQASQSPNNLLAWYQQKPGKAPKLLIYGASDLPSGVPSRFSGSGSGTDFTLTISSLQPEDFATYYCQNNYYVGPVSYAFGGGTKVEIKR
notes: Humanized IgG1 with kappa light chain; also called anti-human PD-1 agonist antibody; anti-human PD-1 agonist IgG1 antibody
On to B1, for which the “inhibition of human PD-1 NFAT-luciferase reporter cell activity (IC50)” value in experiment [1] was 0.0752 µg/mL. Further, the EC50 in experiment [2] is 1.3 µg/mL; in experiment [7], 1.09 µg/mL. Also, the Kd in experiment [3] was 1 nM; in experiment [4], 4.7 nM; in experiment [5], 2.29 nM; in experiment [6], 9.51 nM. The koff in experiment [3] was 0.00017 s⁻¹; in experiment [4] it was 0.0011 s⁻¹; in experiment [5] it was 0.000701 s⁻¹; in experiment [6], 0.00489 s⁻¹. The kon in experiment [3] was 170000 M⁻¹ s⁻¹; in experiment [4], 240000 M⁻¹ s⁻¹; in experiment [6], 519000 M⁻¹ s⁻¹; in experiment [8], 307000 M⁻¹ s⁻¹.

By EC50 is commonly meant the midpoint of the concentration-response curve. Usually Kd stands for the constant that tells how readily two partners part at equilibrium. As usually defined, the koff is the rate constant with which the complex falls apart. Usually kon stands for the second-order rate constant of association.

These data come from patent US20190270818A1 (Eli Lilly, published 2019).
